According to patent publication US20220177587A1, “METHODS AND USES OF VARIANT CD80 FUSION PROTEINS AND RELATED CONSTRUCTS” (Alpine Immune Sciences, Inc., priority 2018, published 2022):
Positions count from the first letter of the chain named. Numbers in names are those of the source.

B1: E35D/N48K (protein)
chain: VIHVTKEVKEVATLSCGHNVSVEELAQTRIYWQKDKKMVLTMMSGDMKIWPEYKNRTIFDITNNLSIVILALRPSDEGTYECVVLKYEKDAFKREHLAEVTLSVKAD
B2: E35D/M47V/N48K/K89N (protein)
chain: B1 chain with M47V, K89N
B3: E35D/M47V/N48K/V68M/L85Q (protein)
chain: B1 chain with M47V, V68M, L85Q
B4: E35D/N48K/K89N (protein)
chain: B1 chain with K89N
B5: E35D/K89N (protein)
chain: B1 chain with K48N, K89N
B6: E35D/D46V/M47V/V68M/L85Q (protein)
chain: B1 chain with D46V, M47V, K48N, V68M, L85Q
B7: E35D/M47V/V68M/L85Q/K89N (protein)
chain: B1 chain with M47V, K48N, V68M, L85Q, K89N
B8: M47V/N48K/K89N (protein)
chain: B1 chain with D35E, M47V, K89N
B9: M47V/N48K/V68M (protein)
chain: B1 chain with D35E, M47V, V68M
B10: E35D/D46V/M47V/N48K/V68M (protein)
chain: B1 chain with D46V, M47V, V68M
B11: M47V/V68M (protein)
chain: B1 chain with D35E, M47V, K48N, V68M
B12: E35D/M47L/A71G/D90G (protein)
chain: B1 chain with M47L, K48N, A71G, D90G
B13: M47L/V68M/A71G/D90G (protein)
chain: B1 chain with D35E, M47L, K48N, V68M, A71G, D90G
B14: H18Y/A26E/E35D/M47L (protein)
chain: B1 chain with H18Y, A26E, M47L, K48N
B15: H18Y/V68M/A71G/D90G (protein)
chain: B1 chain with H18Y, D35E, K48N, V68M, A71G, D90G

Molecular target: T1, CD28 (Homo sapiens, UniProt P10747)
Test: Flow binding to Jurkat/IL2 reporter cells (CD28)
Parameters: host or cells: Jurkat cells expressing an IL-2-luciferase reporter
Settings: Table E19; Jurkats (CD28); 33.3 nM
Summary of the method: (§1)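 Binding EC50 and PE mean fluorescence intensity derived by flow cytometry using PE-labelled anti-human Fc secondary. Target cells were CTLA4- or PD-L1-transfected CHO lines and CD28-expressing Jurkat/IL2 reporter cells, stained with fusion proteins on ice for 45 min following BSA blocking.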

CD28 MFI at 33.3 nM	Molecule
194	B1
701	B2
118	B3
411	B4
236	B5
331	B6
246	B7
366	B8
641	B9
1085	B10
328	B11

Same assay, conditions: Table E19; MFI at 33.3 nM relative to WT CD80 ECD-Fc (Abcam)

CD28 Fold change to WT CD80 [fold]	Molecule
0.3	B1
1.0	B2
0.2	B3
0.6	B4
0.3	B5
0.5	B6
0.3	B7
0.5	B8
0.9	B9
1.5	B10
0.5	B11

Same assay, conditions: Table E20; Jurkats (CD28); 33.3 nM

CD28 MFI at 33.3 nM	Molecule
1331	B12
3610	B13
324	B14
3414	B15

Same assay, conditions: Table E20; MFI at 33.3 nM relative to CD80 WT IgV-Fc

CD28 Fold change to WT CD80 [fold]	Molecule
30.3	B12
82.2	B13
7.4	B14
77.8	B15

Molecular target: T1, CD28
Test: Jurkat/IL2 + CHO/OKT3 +/- PD-L1 reporter assay: PD-L1-dependent CD28 costimulation
Format: cell-based
Parameters: host or cells: Jurkat cells expressing an IL-2-luciferase reporter
Settings: Table E21; Jurkat/IL2 + CHO/OKT3/PD-L1; 5.0 nM
Summary of the method: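 Readout is relative luminescence from lysed cocultures: test protein given 15 min at room temperature to Jurkat cells before adding CHO artificial APCs displaying OKT3 alone or OKT3 plus PD-L1, then 5 h at 37 °C, 5% CO2.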

Fold Increase over WT CD80-IgV-Fe [fold]	Molecule
5.1	B1
7.1	B2
7.9	B3
6.3	B4
2.5	B5
8.5	B6
7.4	B7
4.1	B8
5.8	B9
6.1	B10
4.8	B11

Same assay, conditions: Table E21; Jurkat/IL2 + CHO/OKT3/PD-L1; CD80 Conc 5.0 nM

Relative Luciferase Units (RLU), CD80 Conc 5.0 nM [RLU]	Molecule
590	B1
814	B2
907	B3
719	B4
293	B5
980	B6
854	B7
472	B8
664	B9
696	B10
553	B11

Same assay, conditions: Table E22; Jurkat/IL2 + CHO/OKT3/PD-L1; 5.0 nM

Fold Increase over WT CD80-IgV-Fe [fold]	Molecule
2.01	B12
1.98	B13
3.10	B14
2.04	B15

Same assay, conditions: Table E22; Jurkat/IL2 + CHO/OKT3/PD-L1; CD80 Conc 5.0 nM

Relative Luciferase Units (RLU), CD80 Conc 5.0 nM [RLU]	Molecule
784	B12
771	B13
1208	B14
797	B15

Molecular target: huCTLA4 (Homo sapiens, UniProt P16410)
Sequence (P16410 36-223): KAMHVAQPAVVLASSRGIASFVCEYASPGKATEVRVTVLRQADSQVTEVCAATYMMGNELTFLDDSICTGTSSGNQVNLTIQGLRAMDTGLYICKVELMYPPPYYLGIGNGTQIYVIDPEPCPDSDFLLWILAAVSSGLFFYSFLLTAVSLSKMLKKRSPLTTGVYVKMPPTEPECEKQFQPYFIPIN
Test: Flow binding to CHO cells stably expressing CTLA4
Parameters: huCTLA4 and huPD-L1, full-length mammalian surface expression constructs were generated; expressed in transfected cells; host or cells: CHO cells, lentiviral transduction, sorted to >98% purity
Settings: Table E19; CHO cells stably expressing CTLA4; 33.3 nM
Summary of the method: as §1

CTLA4 MFI at 33.3 nM	Molecule
41325	B1
43756	B2
26104	B3
34727	B4
21755	B5
36463	B6
30276	B7
42071	B8
34612	B9
23880	B10
7282	B11

Same assay, conditions: Table E19; MFI at 33.3 nM relative to WT CD80 ECD-Fc (Abcam)

CTLA4 Fold change to WT CD80 [fold]	Molecule
1.0	B1
1.1	B2
0.6	B3
0.9	B4
0.5	B5
0.9	B6
0.7	B7
1.0	B8
0.9	B9
0.6	B10
0.2	B11

Same assay, conditions: Table E20; CHO cells stably expressing CTLA4; 33.3 nM

CTLA4 MFI at 33.3 nM	Molecule
20921	B12
17418	B13
23990	B14
22321	B15

Same assay, conditions: Table E20; MFI at 33.3 nM relative to CD80 WT IgV-Fc

CTLA4 Fold change to WT CD80 [fold]	Molecule
15.4	B12
12.8	B13
17.7	B14
16.4	B15

Molecular target: huPD-L1 (Homo sapiens, UniProt Q9NZQ7)
Sequence (Q9NZQ7 19-290): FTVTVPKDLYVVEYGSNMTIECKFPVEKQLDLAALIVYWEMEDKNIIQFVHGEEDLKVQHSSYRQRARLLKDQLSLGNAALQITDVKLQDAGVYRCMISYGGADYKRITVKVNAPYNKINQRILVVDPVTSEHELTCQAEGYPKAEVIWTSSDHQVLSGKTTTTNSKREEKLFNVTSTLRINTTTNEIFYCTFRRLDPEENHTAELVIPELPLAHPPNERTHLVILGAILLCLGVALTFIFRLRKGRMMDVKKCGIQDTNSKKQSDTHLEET
Test: Flow binding to CHO cells stably expressing PD-L1
Parameters: huCTLA4 and huPD-L1, full-length mammalian surface expression constructs were generated; expressed in transfected cells; host or cells: CHO cells, lentiviral transduction, sorted to >98% purity
Settings: Table E19; CHO cells stably expressing PD-L1; 33.3 nM
Summary of the method: as §1

PD-L1 MFI at 33.3 nM	Molecule
6545	B1
6669	B2
10479	B3
5766	B4
757	B5
26290	B6
12085	B7
2366	B8
14464	B9
25940	B10
4294	B11

Same assay, conditions: Table E19; MFI at 33.3 nM relative to WT CD80 ECD-Fc (Abcam)

PD-L1 Fold change to WT CD80 [fold]	Molecule
51.1	B1
52.1	B2
81.9	B3
45.0	B4
5.9	B5
205.4	B6
94.4	B7
18.5	B8
113.0	B9
202.7	B10
33.5	B11

Same assay, conditions: Table E19; ratio of MFI at 33.3 nM

Ratio of PDL1:CD28	Molecule
33.7	B1
9.5	B2
88.8	B3
14.0	B4
3.2	B5
79.4	B6
49.1	B7
6.5	B8
22.6	B9
23.9	B10
13.1	B11

Same assay, conditions: Table E20; CHO cells stably expressing PD-L1; 33.3 nM

PD-L1 MFI at 33.3 nM	Molecule
12073	B12
31114	B13
9951	B14
30670	B15

Same assay, conditions: Table E20; MFI at 33.3 nM relative to CD80 WT IgV-Fc

PD-L1 Fold change to WT CD80 [fold]	Molecule
276.9	B12
713.6	B13
228.2	B14
703.4	B15

Same assay, conditions: Table E20; ratio of MFI at 33.3 nM

Ratio of PDL1:CD28	Molecule
9.1	B12
8.6	B13
30.7	B14
9.0	B15
